The source of these data is PMC1925066, “Optical biosensor differentiates signaling of endogenous PAR1 and PAR2 in A431 cells” (BMC Cell Biology, 2007).

One data set has as its system A431 cells. Set-up: method as in PMID 16766609. Conditions: doses greater than ~1000 nM; cited from earlier work.
Data set [1] deals with endogenous PAR1 and PAR2 in A431 cells. The experiment in a line: MRCAT resonant waveguide grating biosensor DMR assay in quiescent A431 cells. The format is cell-based, human. Conditions: for EC50: A431 cells. The protocol:
(§1) Human epidermoid carcinoma A431 cells ([…]) were grown in Dulbecco's modified Eagle's medium (DMEM) supplemented with 10% fetal bovine serum (FBS), 4.5 g/liter glucose, 2 mM glutamine, and antibiotics. ~5 × 10^4 cells at passage 3 to 8 suspended in 200 μl the DMEM medium containing 10% FBS were placed in each well of a 96well microplate, and were cultured at 37°C under air/5% CO2 for ~2 days, followed by ~20 hr starvation through continuously culturing in the serum-free DMEM.
Corning® Epic™ angular interrogation system with transverse magnetic or p-polarized TM0 mode was used for all studies. The detailed instrumental setup and assay protocols had been previously described. Briefly, all compound solutions were prepared using 1 × HBSS containing minimal amount of dimethyl sulfoxide, while the starved cells were washed and maintained with 100 μl the serum-free DMEM. The cells were then treated with 50 μl 1 × HBSS buffered solution in the absence and presence of a compound, followed by stimulation with ligand solutions. The cellular responses were monitored in real time throughout the assays.
(§2) Unless specifically mentioned, three replicates were carried out for each measurement or each compound. The standard deviation was derived from these measurements (n = 3). […] All dose-dependent responses were analyzed using non-linear regression method with the Prism software (Graph Pad).

Data set [2] has the same test system. The experiment in a line: Fluo-3 Ca2+ mobilization (Ca2+ flux) assay in quiescent A431 cells. The format is cell-based, human. On the procedure:
as §1
Cells were grown in Costar™ 96well clear cell culture microplates. After starvation, the cells were washed with 1× HBSS (1× regular Hank's balanced salt solution, 20 mM HEPES buffer, pH 7.0) in the presence of 2.5 mM probenicid, and labeled in the same buffer containing 4 μM Fluo-3 for 1 hour at room temperature. The cells were then washed twice with buffer, maintained with 100 μl 1× HBSS containing 2.5 mM probenicid. The assay was initiated by transferring 50 μl PAR agonist solution to the cell plate, and calcium signal was recorded over 6 minutes with a 6 sec interval using HTS7000 BioAssay Reader (PerkinElmer Life Science, Boston, MA). The fluorescent intensity before stimulation was recorded and used as a baseline. The percentage increase in fluorescence intensity after stimulation, relative to the baseline fluorescence, was analyzed and used directly as a measure for the increase of intracellular Ca^2+ level induced by PAR agonists.
as §2
(In general: A change in cytosolic calcium serves as a functional read-out for many receptors and channels.)

B1: Trypsin: serine protease, PAR2 agonist, purchased from Sigma (protein, UniProt P00760 24-246, looked up)
Serine protease 1: IVGGYTCGANTVPYQVSLNSGYHFCGGSLINSQWVVSAAHCYKSGIQVRLGEDNINVVEGNEQFISASKSIVHPSYNSNTLNNDIMLIKLKSAASLNSRVASISLPTSCASAGTQCLISGWGNTKSSGTSYPDVLKCLKAPILSDSSCKSAYPGQITSNMFCAGYLEGGKDSCQGDSGGPVVCSGKLQGIVSWGSGCAQKNKPGVYTKVCNYVSWIKQTIASN
Usually EC50 stands for the concentration that produces a half-maximal response. On to B1, for which the cell detachment result in the data set with A431 cells is given as “significant cell detachment”. Moreover, the EC50 was found to be 102 ± 21.9 nM in data set [1] (amplitude of N-DMR event, read-out: EC50 (n = 3) N-DMR); 98 ± 27.8 nM in data set [1] (amplitude of P-DMR event, read-out: EC50 (n = 3) P-DMR); 45.7 ± 5.8 nM in data set [2] (A431 cells, read-out: EC50 (n = 3) Ca^2+ flux assay). Further, the “desensitization of trypsin-treated cells (DMR signal)” value in data set [1] (trypsin 200 nM first, repeated stimulation separated by ~1 hr) is recorded as “completely desensitized”. Also, the “maximal [Ca^2+]i elevation” value in data set [2] (A431 cells, SFLLR-amide at 80 μM) was 100 ± 6%. In addition, the “responsiveness (Ca^2+ mobilization) after pre-stimulation with thrombin” value in data set [2] (thrombin 40 unit/ml first, separated by 6 min) was “only partially”. The “Ca^2+ mobilization response after pre-stimulation with trypsin” value in data set [2] (trypsin 200 nM first, repeated stimulation separated by 6 min) was “completely blocked”.
